Source: the supplement of paper PMC10567573

B1: RHOBTB3 (parent)
chain: STTEGIQLAKELGATYLELHSLDD

Variants of: B1
Experiment: protein stability index of a GFP-peptide fusion (GPS, HEK-293T) (PSI 1-6); higher = more stable
Conditions: c terminus: a fixed tail appended
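Note: lentivirally expressed fusions sorted by FACS into six bins by GFP to DsRed ratio, PSI derived from sequencing read proportions per bin multiplied by bin number.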

Variant | protein stability index
STTEGIQLAKEHGATYLELHSLDD | 4.78
STTEGIQLAKEPGATYLELHSLDD | 4.42
STTEGIQLAKETGATYLELHSLDD | 4.88
STTEGIQLAKEVGATYLELHSLDD | 4.43
STTEGIQLAKEFGATYLELHSLDD | 3.89
STTEGIQLAKEGGATYLELHSLDD | 4.89
STTEGIQLAKEKGATYLELHSLDD | 5.07
STTEGIQLAKEIGATYLELHSLDD | 3.92
STTEGIQLAKEYGATYLELHSLDD | 4.81
STTEGIQLAKEEGATYLELHSLDD | 4.99
STTEGIQLAKENGATYLELHSLDD | 4.77
STTEGIQLAKEQGATYLELHSLDD | 4.31
STTEGIQLAKEMGATYLELHSLDD | 4.48
STTEGIQLAKESGATYLELHSLDD | 4.92
STTEGIQLAKELGATYLELVSLDD | 1.65
STTEGIQLAKELGATYLELISLDD | 1.76
STTEGIQLAKELGATYLELQSLDD | 3.13
STTEGIQLAKELGATYLELFSLDD | 2.75
STTEGIQLAKELGATYLELASLDD | 2.73
STTEGIQLAKELGATYLELKSLDD | 2.42
STTEGIQLAKELGATYLELWSLDD | 1.93
STTEGIQLAKELGATYLELTSLDD | 3.15
STTEGIQLAKELGATYLELESLDD | 3.45
STTEGIQLAKELGATYLELYSLDD | 2.44

Variant | protein stability index
STTEGIQLAKELGATYLELNSLDD | 4.46
STTEGIQLAKELGATYLELDSLDD | 4.95
STTEGIQLAKELGATYLELPSLDD | 4.93
STTEGIQLAKELGATYLELSSLDD | 3.44
STTEGIQLAKELGATYLELLSLDD | 1.41
STTEGIQLAKELGATYLELCSLDD | 2.68
STTEGIQLAKELGATYLELHSIDD | 3.7
STTEGIQLAKELGATYLELHSADD | 4.99
STTEGIQLAKELGATYLELHSRDD | 5.07
STTEGIQLAKELGATYLELHSTDD | 4.15
STTEGIQLAKELGATYLELHSEDD | 5.93
STTEGIQLAKELGATYLELHSMDD | 4.32
STTEGIQLAKELGATYLELHSDDD | 4.96
STTEGIQLAKELGATYLELHSQDD | 4.91
STTEGIQLAKELGATYLELHSHDD | 4.62
STTEGIQLAKELGATYLELHSSDD | 4.47
STTEGIQLAKELGATYLELHSNDD | 4.68
STTEGIQLAKELGATYLELHSVDD | 4.3
STTEGIQLAKELGATYLELHSWDD | 3.45
STTEGIQLAKELGATYLELHSFDD | 3.47
STTEGIQLAKELGATYLELHSGDD | 3.38
STTEGIQLAKELGATYLELHSPDD | 4.54
STTEGIQLAKELGATYLELHSCDD | 4.01
STTEGIQLAKELGATYLELHSKDD | 4.68

Variant | protein stability index
STTEGIQLAKELGATVLELHSLDD | 3.59
STTEGIQLAKELGATNLELHSLDD | 5.25
STTEGIQLAKELGATHLELHSLDD | 4.25
STTEGIQLAKELGATSLELHSLDD | 4.84
STTEGIQLAKELGATLLELHSLDD | 2.91
STTEGIQLAKELGATQLELHSLDD | 4.33
STTEGIQLAKELGATWLELHSLDD | 2.49
STTEGIQLAKELGATRLELHSLDD | 4.18
STTEGIQLAKELGATPLELHSLDD | 5.66
STTEGIQLAKELGATELELHSLDD | 4.35
STTEGIQLAKELGATILELHSLDD | 3.47
STTEGIQLAKELGATDLELHSLDD | 3.29
STTEGIQLAKELGATFLELHSLDD | 3.27
STTEGIQLAKELGATTLELHSLDD | 4.28
STTEGIQLAKELGATGLELHSLDD | 4.83
STTEGIQLAKELGATKLELHSLDD | 4.81
STTEGIQLAKELGATYLECHSLDD | 4.71
STTEGIQLAKELGATYLEKHSLDD | 5.37
STTEGIQLAKELGATYLEMHSLDD | 4.38
STTEGIQLAKELGATYLEHHSLDD | 5.02
STTEGIQLAKELGATYLETHSLDD | 4.96
STTEGIQLAKELGATYLEYHSLDD | 4.82
STTEGIQLAKELGATYLEFHSLDD | 4.21
STTEGIQLAKELGATYLESHSLDD | 5.01

Variant | protein stability index
STTEGIQLAKELGATYLERHSLDD | 4.43
STTEGIQLAKELGATYLEPHSLDD | 5.37
STTEGIQLAKELGATYLEGHSLDD | 5.31
STTEGIQLAKELGATYLEWHSLDD | 4.68
STTEGIQLAKELGATYLEVHSLDD | 4.68
STTEGIQLAKELGATYLEIHSLDD | 2.38
STTEGIQLAKELGATYLEAHSLDD | 4.63
STTEGIQLAKELGATYLEDHSLDD | 5.77
STTEGIQLAKELGATYLENHSLDD | 5
STTEGIQLAKELGATYLEEHSLDD | 4.76
STTEGIQLAKELGATYLEQHSLDD | 5.55
STTEGIQLAKELGITYLELHSLDD | 3.31
STTEGIQLAKELGMTYLELHSLDD | 3.58
STTEGIQLAKELGNTYLELHSLDD | 3.59
STTEGIQLAKELGLTYLELHSLDD | 3.15
STTEGIQLAKELGQTYLELHSLDD | 3.28
STTEGIQLAKELGDTYLELHSLDD | 2.87
STTEGIQLAKELGSTYLELHSLDD | 4.02
STTEGIQLAKELGHTYLELHSLDD | 4.1
STTEGIQLAKELGETYLELHSLDD | 4.25
STTEGIQLAKELGYTYLELHSLDD | 3.7
STTEGIQLAKELGPTYLELHSLDD | 4.28
STTEGIQLAKELGKTYLELHSLDD | 3.01
STTEGIQLAKELGRTYLELHSLDD | 3.59

Variant | protein stability index
STTEGIQLAKELGTTYLELHSLDD | 4.18
STTEGIQLAKELGWTYLELHSLDD | 1.75
STTEGIQLAKELGVTYLELHSLDD | 3.85
STTEGIQLAKELGAGYLELHSLDD | 3.97
STTEGIQLAKELGAQYLELHSLDD | 4.33
STTEGIQLAKELGAYYLELHSLDD | 3.49
STTEGIQLAKELGAIYLELHSLDD | 1.99
STTEGIQLAKELGAFYLELHSLDD | 2.59
STTEGIQLAKELGAWYLELHSLDD | 2.02
STTEGIQLAKELGALYLELHSLDD | 2.1
STTEGIQLAKELGAEYLELHSLDD | 4.87
STTEGIQLAKELGASYLELHSLDD | 3.71
STTEGIQLAKELGAHYLELHSLDD | 2.69
STTEGIQLAKELGANYLELHSLDD | 4.72
STTEGIQLAKELGAMYLELHSLDD | 3.27
STTEGIQLAKELGAKYLELHSLDD | 4.33
STTEGIQLAKELGAPYLELHSLDD | 3.37
STTEGIQLAKELGACYLELHSLDD | 3.59
STTEGIQLAKELGADYLELHSLDD | 4.41
STTEGIQLAKELGAVYLELHSLDD | 2.17
STTEGIQLAKELGARYLELHSLDD | 3.83
STTEGIQLAKELGATYLELHRLDD | 2.86
STTEGIQLAKELGATYLELHNLDD | 4
STTEGIQLAKELGATYLELHHLDD | 3.38

Variant | protein stability index
STTEGIQLAKELGATYLELHDLDD | 4.49
STTEGIQLAKELGATYLELHCLDD | 3.14
STTEGIQLAKELGATYLELHFLDD | 1.64
STTEGIQLAKELGATYLELHYLDD | 1.59
STTEGIQLAKELGATYLELHALDD | 2.93
STTEGIQLAKELGATYLELHTLDD | 3.79
STTEGIQLAKELGATYLELHKLDD | 3.02
STTEGIQLAKELGATYLELHVLDD | 2.93
STTEGIQLAKELGATYLELHELDD | 3.93
STTEGIQLAKELGATYLELHQLDD | 3.39
STTEGIQLAKELGATYLELHGLDD | 4
STTEGIQLAKELGATYLELHPLDD | 4.06
STTEGIQLAKELGATYLELHWLDD | 1.03
STTEGIQLAKELGATYHELHSLDD | 4.8
STTEGIQLAKELGATYQELHSLDD | 4.74
STTEGIQLAKELGATYRELHSLDD | 3.94
STTEGIQLAKELGATYPELHSLDD | 4.88
STTEGIQLAKELGATYIELHSLDD | 2.9
STTEGIQLAKELGATYCELHSLDD | 4.14
STTEGIQLAKELGATYNELHSLDD | 4.6
STTEGIQLAKELGATYKELHSLDD | 4.83
STTEGIQLAKELGATYFELHSLDD | 3.27
STTEGIQLAKELGATYMELHSLDD | 4.11
STTEGIQLAKELGATYGELHSLDD | 5.66

Variant | protein stability index
STTEGIQLAKELGATYAELHSLDD | 5.04
STTEGIQLAKELGATYTELHSLDD | 4.82
STTEGIQLAKELGATYSELHSLDD | 4.61
STTEGIQLAKELGATYDELHSLDD | 5.55
STTEGIQLAKELGATYEELHSLDD | 4.73
STTEGIQLAKELGATYYELHSLDD | 4.12
STTEGIQLAKELGATYVELHSLDD | 4.15
STTEGIQLAKELEATYLELHSLDD | 2.73
STTEGIQLAKELCATYLELHSLDD | 2.88
STTEGIQLAKELFATYLELHSLDD | 2.36
STTEGIQLAKELRATYLELHSLDD | 1.66
STTEGIQLAKELMATYLELHSLDD | 1.66
STTEGIQLAKELTATYLELHSLDD | 2.72
STTEGIQLAKELLATYLELHSLDD | 1.28
STTEGIQLAKELDATYLELHSLDD | 4.31
STTEGIQLAKELYATYLELHSLDD | 1.42
STTEGIQLAKELVATYLELHSLDD | 2.52
STTEGIQLAKELIATYLELHSLDD | 2.79
STTEGIQLAKELHATYLELHSLDD | 2.09
STTEGIQLAKELAATYLELHSLDD | 1.75
STTEGIQLAKELNATYLELHSLDD | 2.64
STTEGIQLAKELPATYLELHSLDD | 4.81
STTEGIQLAKELWATYLELHSLDD | 1.39
STTEGIQLAKELKATYLELHSLDD | 3.16

Variant | protein stability index
STTEGIQLAKELSATYLELHSLDD | 3.35
STTEGIQLAKELGATYLFLHSLDD | 2
STTEGIQLAKELGATYLGLHSLDD | 3.72
STTEGIQLAKELGATYLCLHSLDD | 2.62
STTEGIQLAKELGATYLHLHSLDD | 3.07
STTEGIQLAKELGATYLKLHSLDD | 3.2
STTEGIQLAKELGATYLSLHSLDD | 3.86
STTEGIQLAKELGATYLRLHSLDD | 2.96
STTEGIQLAKELGATYLMLHSLDD | 2.66
STTEGIQLAKELGATYLILHSLDD | 1.86
STTEGIQLAKELGATYLWLHSLDD | 1.61
STTEGIQLAKELGATYLPLHSLDD | 3.97
STTEGIQLAKELGATYLYLHSLDD | 2.57
STTEGIQLAKELGATYLDLHSLDD | 4.36
STTEGIQLAKELGATYLTLHSLDD | 3.71
STTEGIQLAKELGATYLVLHSLDD | 2.38
STTEGIQLAKELGATYLQLHSLDD | 3.39
STTEGIQLAKELGATYLLLHSLDD | 2.41
STTEGIQLAKELGATYLNLHSLDD | 4.02
STTEGIQLAKELGATYLALHSLDD | 3.22
